38 variants from the RNAGym collection of RNA variant scans (doi:10.7554/elife.80360) can be followed below.

The labels stand for the following.
B1: Hairpin Ribozyme (parent)
chain: GUCCUCUUUCACGUGCGCGUGAAAGAGAGAAGUGAACCAGAGAAACACACGUUGUGGUAUAUUACCUGGUA

The variants in the series derive from B1. In words: self-cleavage, relative activity (ratio to wild type); higher = more cleavage; co-transcriptional.
As to GUCCUCUUUCACGUGCGCGUGAAAGAGAGAAGUGAACCAGAGAAUCACACGUUGUGGUAUAUUACCGGGUA [A45U U67G], the self-cleavage was 0.131.

Take GUCCUCUUUCACGUGCGCGUGAAAGAGAGAAGUGAACCAGAGAAUCACACGUUGUGAUAUAUUACCUGGUA [A45U G57A]: the self-cleavage was 0.17.

Turning to GUCCUCUUUCACGUGCGCGUGAAAGAGAGAAGUGAACCAGAGAAAAACACGAUGUGGUAUAUUACCUGGUA [C46A U52A], the self-cleavage is 0.196.

Turning to GUCCUCUUUCACGUGCGCGUGAAAGAGAGAAGUGAACCAGAGAAGCACACGUUGUGGUAUAUCACCUGGUA [A45G U63C], the self-cleavage stood at 0.0324.

Turning to GUCCUCUUUCACGUGCGCGUGAAAGAGAGAAGUGAACCAGAGAAGCACACGUUGUGGUAUAUGACCUGGUA [A45G U63G], the self-cleavage was determined as 0.226.

With GUCCUCUUUCACGUGCGCGUGAAAGAGAGAAGUGAACCAGAGAAGCACACGGUGUGGUAUAUUACCUGGUA [A45G U52G], the self-cleavage came to 0.0854.

With GUCCUCUUUCACGUGCGCGUGAAAGAGAGAAGUGAACCAGAGAAGCACACGUUGUGGUAUAUUACGUGGUA [A45G C66G], the self-cleavage came to 0.122.

On to GUCCUCUUUCACGUGCGCGUGAAAGAGAGAAGUGAACCAGAGAAGCACACGUUGUGGAAUAUUACCUGGUA [A45G U58A], for which the self-cleavage was 0.174.

With GUCCUCUUUCACGUGCGCGUGAAAGAGAGAAGUGAACCAGAGAAUCACACGUUGUGGUAUAUUCCCUGGUA [A45U A64C], the self-cleavage is 0.18.

In the case of GUCCUCUUUCACGUGCGCGUGAAAGAGAGAAGUGAACCAGAGAAUCACACGUUGUGGUAUAUCACCUGGUA [A45U U63C], the self-cleavage was 0.287.

Take GUCCUCUUUCACGUGCGCGUGAAAGAGAGAAGUGAACCAGAGAAAAACACGUUGUGGUACAUUACCUGGUA [C46A U60C]: the self-cleavage amounted to 0.277.

As to GUCCUCUUUCACGUGCGCGUGAAAGAGAGAAGUGAACCAGAGAAAAACACGUUGUGGUAAAUUACCUGGUA [C46A U60A], the self-cleavage worked out at 0.0649.

Take GUCCUCUUUCACGUGCGCGUGAAAGAGAGAAGUGAACCAGAGAAAACCACGUUGUGGUAUAUUACCUGGUA [C46A A47C]: the self-cleavage was 0.0767.

With GUCCUCUUUCACGUGCGCGUGAAAGAGAGAAGUGAACCAGAGAAGCACACGUUGUGGUAUAUUACCUGGCA [A45G U70C], the self-cleavage was 0.0703.

Take GUCCUCUUUCACGUGCGCGUGAAAGAGAGAAGUGAACCAGAGAAAGACCCGUUGUGGUAUAUUACCUGGUA [C46G A49C]: the self-cleavage worked out at 0.13.

In the case of GUCCUCUUUCACGUGCGCGUGAAAGAGAGAAGUGAACCAGAGAAUCACACGUUGUGGUAUAUUACCUGUUA [A45U G69U], the self-cleavage is 0.197.

On to GUCCUCUUUCACGUGCGCGUGAAAGAGAGAAGUGAACCAGAGAAAAACACGUUGUGGUAUAUUACCUGAUA [C46A G69A], for which the self-cleavage was 0.13.

With GUCCUCUUUCACGUGCGCGUGAAAGAGAGAAGUGAACCAGAGAAAGAAACGUUGUGGUAUAUUACCUGGUA [C46G C48A], the self-cleavage was 0.204.

In the case of GUCCUCUUUCACGUGCGCGUGAAAGAGAGAAGUGAACCAGAGAAAGAUACGUUGUGGUAUAUUACCUGGUA [C46G C48U], the self-cleavage is 0.156.

As to GUCCUCUUUCACGUGCGCGUGAAAGAGAGAAGUGAACCAGAGAAAAACACGUUGUGGUAUAUUACCUGGUA [C46A], the self-cleavage was found to be 0.148.

For GUCCUCUUUCACGUGCGCGUGAAAGAGAGAAGUGAACCAGAGAAAGACACGUUGUGGUAUAUUACCUGGUA [C46G], the self-cleavage came out at 0.15.

Turning to GUCCUCUUUCACGUGCGCGUGAAAGAGAGAAGUGAACCAGAGAAGCACACAUUGUGGUAUAUUACCUGGUA [A45G G51A], the self-cleavage came out at 0.161.

Turning to GUCCUCUUUCACGUGCGCGUGAAAGAGAGAAGUGAACCAGAGAAUCACACGAUGUGGUAUAUUACCUGGUA [A45U U52A], the self-cleavage amounted to 0.122.

In the case of GUCCUCUUUCACGUGCGCGUGAAAGAGAGAAGUGAACCAGAGAAGCACACGUUGUGGUAUAUUACCAGGUA [A45G U67A], the self-cleavage worked out at 0.0776.

In the case of GUCCUCUUUCACGUGCGCGUGAAAGAGAGAAGUGAACCAGAGAAAAACACGUUGUGGUAUAGUACCUGGUA [C46A U62G], the self-cleavage is 0.0929.

On to GUCCUCUUUCACGUGCGCGUGAAAGAGAGAAGUGAACCAGAGAAAAACACGUUGUGGUAUAUUACCUGGUC [C46A A71C], for which the self-cleavage was determined as 0.342.

With GUCCUCUUUCACGUGCGCGUGAAAGAGAGAAGUGAACCAGAGAAUCAAACGUUGUGGUAUAUUACCUGGUA [A45U C48A], the self-cleavage amounted to 0.14.

Consider GUCCUCUUUCACGUGCGCGUGAAAGAGAGAAGUGAACCAGAGAAUCAUACGUUGUGGUAUAUUACCUGGUA [A45U C48U], for which the self-cleavage is 0.135.

With GUCCUCUUUCACGUGCGCGUGAAAGAGAGAAGUGAACCAGAGAAAAACACGUUGUUGUAUAUUACCUGGUA [C46A G56U], the self-cleavage was determined as 0.077.

On to GUCCUCUUUCACGUGCGCGUGAAAGAGAGAAGUGAACCAGAGAAAAACACGUUUUGGUAUAUUACCUGGUA [C46A G54U], for which the self-cleavage was found to be 0.307.

GUCCUCUUUCACGUGCGCGUGAAAGAGAGAAGUGAACCAGAGAAAAACACGUUGUGGUAUAUUCCCUGGUA [C46A A64C]: the self-cleavage was found to be 0.0755.

Regarding GUCCUCUUUCACGUGCGCGUGAAAGAGAGAAGUGAACCAGAGAAAAACACGUUGUGGUAUAUUUCCUGGUA [C46A A64U], the self-cleavage was determined as 0.255.

For the variant GUCCUCUUUCACGUGCGCGUGAAAGAGAGAAGUGAACCAGAGAAAAACACGUUGUGGUAUAUUGCCUGGUA [C46A A64G], the self-cleavage came to 0.185.

With GUCCUCUUUCACGUGCGCGUGAAAGAGAGAAGUGAACCAGAGAAUCACACGUUGAGGUAUAUUACCUGGUA [A45U U55A], the self-cleavage turned out to be 0.197.

GUCCUCUUUCACGUGCGCGUGAAAGAGAGAAGUGAACCAGAGAAUCACGCGUUGUGGUAUAUUACCUGGUA [A45U A49G]: the self-cleavage was found to be 0.165.

As to GUCCUCUUUCACGUGCGCGUGAAAGAGAGAAGUGAACCAGAGAAUCACCCGUUGUGGUAUAUUACCUGGUA [A45U A49C], the self-cleavage was determined as 0.134.

Take GUCCUCUUUCACGUGCGCGUGAAAGAGAGAAGUGAACCAGAGAAUCACACGUUGUUGUAUAUUACCUGGUA [A45U G56U]: the self-cleavage came to 0.208.

For the variant GUCCUCUUUCACGUGCGCGUGAAAGAGAGAAGUGAACCAGAGAAAGACACGUUGUGGUAUGUUACCUGGUA [C46G A61G], the self-cleavage amounted to 0.126.
